Results: patent US20220275333A1 (FATE THERAPEUTICS, published 2022)

Target: T1, human MICA (on target cells: MICA over-expressing P815, MICA+ Nalm6, endogenous on A2058, K562, CaSki) (human, UniProt Q29983 24-383)
T1 sequence (looked up): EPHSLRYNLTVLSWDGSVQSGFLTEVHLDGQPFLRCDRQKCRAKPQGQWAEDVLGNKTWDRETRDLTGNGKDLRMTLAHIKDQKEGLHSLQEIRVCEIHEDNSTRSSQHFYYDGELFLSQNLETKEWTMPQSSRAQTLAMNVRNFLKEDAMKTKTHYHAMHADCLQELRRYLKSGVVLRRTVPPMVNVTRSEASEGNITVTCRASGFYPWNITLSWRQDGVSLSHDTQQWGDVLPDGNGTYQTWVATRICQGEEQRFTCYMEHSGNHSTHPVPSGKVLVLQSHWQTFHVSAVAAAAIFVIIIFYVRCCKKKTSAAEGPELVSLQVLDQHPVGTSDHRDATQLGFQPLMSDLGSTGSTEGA
Assay: cell-based or functional assay

B1: MICA/B CAR (anti-MICA/B chimeric antigen receptor; version not stated for the experiment) (other)
VH: QIQLVQSGPELKKPGETVKVSCKASGYMFTNYAMNWVKQAPEKGLKWMGWINTHTGDPTYADDFKGRIAFSLETSASTAYLQINNLKNEDTATYFCVRTYGNYAMDYWGQGTSVTVSS
VL: DIQMTQTTSSLSASLGDRVTISCSASQDISNYLNWYQQKPDGTVKLLIYDTSILHLGVPSRFSGSGSGTDYSLTISNLEPEDIATYYCQQYSKFPRTFGGGTTLEIK
EC50 of cytotoxicity (% Caspase 3/7+ target cells) of MICA/B CAR+ T cells on MICA+ Nalm6 cells over E:T ratios, 4 hours: ~1.9 E:T ratio
EC50 of cytotoxicity (% Caspase 3/7+ target cells) of MICA/B CAR+ iNK cells on P815 MICA+ cells over E:T ratios, 4 hours: ~5.2 E:T ratio
